The source of these data is patent publication US20190184028A1 (Janssen / Centocor, published 2019).

The target of assay [1] is T1, epidermal growth factor receptor (EGFR) (human, UniProt P00533 25-1210).
T1 construct: whole, on cells; The cell assays use human tumour lines; also called hEGFR
The experiment in a line: flow cytometry on H292 cells. On the procedure:
To determine the activity of the recently created FN3 domain molecule-SPION, cell targeting assays were set-up in vitro. H292 cells were dissociated from a T-150 cell culture flask using Hank's Enzyme free dissociation buffer (Invitrogen—13150-016). The cells and dissociation buffer were incubated for 15 minutes in a cell incubator. The flask was gently tapped to dissociate any residually bound cells and the buffer and cells were transferred to a 15 mL conical tube. The cells were spun at 1,000 rcf for 2 minutes. The supernatant was gently removed with careful consideration paid to not disturbing the pelleted cells. The cell pellet left over was reconstituted in 1.5 mL of phenol-red free RPMI 1640 media with 10% FBS. It was determined that the suspension contained approximately […]. 100 μL of this suspension was added to each well of a 96-well plate. FN3 domain molecule-SPION sample concentrations are listed above. From these known concentrations, FN3 domain molecule-SPION was added to each well so that the final concentration of FN3 domain molecule-SPION with the cells was 100 μg/mL Fe. Samples were plated in triplicate and incubated for 30 minutes and then purified via 3× centrifugation at 1,000×rcf and resuspension in dPBS pH 7.2. Samples were suspended in a final volume of 300 μL and moved to a clear, flat bottom 96-well plate for analysis on the Guava HTS flow cytometer. A total of 8,000 cells were counted for each sample. Following flow, population samples were analyzed using FlowJo. Each sample was gated so that only live cells were assessed for fluorescence. Histograms were obtained wherein the black peak (the peak to the left side of the graph) is the autofluorescence obtained from unlabeled H292 cells. The blue peak (the peak to the right side of the graph) corresponds to the sample title above the histogram. 83v10, 83v12 and 83v15 are positively shifted compared to the tencon25 control or blank cells (FIGS. 1A-1D). […] All samples were normalized by subtracting the blank cell autofluorescence from the mean fluorescent intensities of each sample. […]
For orientation: In flow cytometry, cells or beads pass a laser one at a time.

The next assay deals with T2, human EpCAM (human, UniProt P16422 24-314).
T2 sequence (looked up): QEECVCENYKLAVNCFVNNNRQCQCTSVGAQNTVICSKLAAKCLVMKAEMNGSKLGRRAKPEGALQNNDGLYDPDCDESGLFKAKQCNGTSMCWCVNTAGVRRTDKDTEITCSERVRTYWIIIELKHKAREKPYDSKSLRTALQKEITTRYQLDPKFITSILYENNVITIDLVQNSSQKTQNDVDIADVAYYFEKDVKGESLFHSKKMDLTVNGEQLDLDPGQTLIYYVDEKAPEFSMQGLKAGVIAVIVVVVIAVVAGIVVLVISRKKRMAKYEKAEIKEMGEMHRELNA
Nature of the assay: cell-based or functional assay.

Assay [2] has as its target T1, epidermal growth factor receptor (EGFR). Nature of the assay: table column 'Binding antigen'; no assay given.

Where a chain is given by its changes, count along the chain named. Numbers in names are those of the source.

B1: 83v15-SPION (designed binder)
chain: MLPAPKNLVVSEVTEDSARLSWDDPWAFYESFLIQYQESEKVGEAIVLTVPGSERSYDLTGLKPGTEYTVSIYGVHNVYKDTNMRGLPLSAIFTTGGHHHHHHC
modifications: C-terminal Cys coupled to a superparamagnetic iron oxide nanoparticle (SPION)
notes: Cysteine variant of P54AR4-83v2 on a nanoparticle; also called 83v15 = C-terminal
With B1, the binding result in assay [1] is reported as “binds”.

B2: Iso124R5AB_D6_cys vcMMAF conjugate (designed binder)
chain: MLPAPKNLVVSRVTEDSARLSWHNHRPQFDSFLIQYQESEKVGEAIVLTVPGSERSYDLTGLKPGTEYTVSIYGVAIAVPWNYQSNPLSAIFTTGGHHHHHHGGC
modifications: vc-MMAF on the C-terminal cysteine (cysteine-maleimide chemistry)
Consider B2, for which, in the assay with human EpCAM, the “Cytotoxicity Assays of CDCs, A431 cells IC50 (nm)” value is 59.2 nm and the “Cytotoxicity Assays of CDCs, HT-29 cells IC50 (nm)” value worked out at 38.3 nm.

B3: EEB9 PEG4-MMAF conjugate (designed binder)
chain: MLPAPKNLVVSRVTEDSARLSWTAPDAAFDSFQIYYSELLSYGEAIVLTVPGSERSYDLTGLCPGTEYTVSINGVKGGTRSWSLSAIFTTAPAPAPAPAPLPAPKNLVVSRVTEDSARLSWTAPDAAFDSFQIYYSELLSYGEAIVLTVPGSERSYDLTGLCPGTEYTVSINGVKGGTRSWSLSAIFTTAPAPAPAPAPTIDEWLLKEAKEKAIEELKKAGITSDYYFDLINKAKTVEGVNALKDEILKA
modifications: Iodoacetyl-PEG4-MMAF on cysteines; 2 MMAF after conjugation
notes: Bivalent P155R8-G3 with ABDcon12
In the case of B3, in assay [2], the binding result is “binds”.

B4: EEB10 PEG4-MMAF conjugate (designed binder)
chain: B3 chain with A93C, A192C
modifications: Iodoacetyl-PEG4-MMAF on cysteines; 4 MMAF after conjugation
notes: as for B3
As for B4, the binding result in assay [2] is recorded as “binds”.

B5: EEB11 PEG4-MMAF conjugate (designed binder)
chain: B3 chain with A93C
modifications: Iodoacetyl-PEG4-MMAF on cysteines; 3 MMAF after conjugation
notes: as for B3
Take B5: the binding result in assay [2] is “binds”.

B6: EEB8 PEG4-MMAF conjugate (designed binder)
chain: B3 chain with C162K
modifications: Iodoacetyl-PEG4-MMAF on cysteine; 1 MMAF after conjugation
Turning to B6, the binding result in assay [2] is “binds”.

B7: 83v10-SPION (designed binder)
chain: MLPAPKNLVVSEVTCDSARLSWDDPWAFYESFLIQYQESEKVGEAIVLTVPGSERSYDLTGLKPGTEYTVSIYGVHNVYKDTNMRGLPLSAIFTTGGHHHHHH
modifications: Cys 15 coupled to a superparamagnetic iron oxide nanoparticle (SPION)
notes: Cysteine variant of the EGFR-targeting FN3 domain P54AR4-83v2, many copies on a nanoparticle (50:1 molar ratio in the reaction); also called 83v10 = E15C
In the case of B7, the binding result in assay [1] was “binds”.

B8: 83v12-SPION (designed binder)
chain: B7 chain with C15E, R19C
modifications: Cys 19 coupled to a superparamagnetic iron oxide nanoparticle (SPION)
notes: Cysteine variant of P54AR4-83v2 on a nanoparticle; also called 83v12 = R19C
As for B8, in assay [1], the binding result is recorded as “binds”.
